For the assay, the target named is mouse (murine) NGF (mouse) (UniProt P01139). As to the kind of experiment: SPR, purified antibody, beta muNGF, 39 C.

A word on the Kd: it is the concentration at which binding is half-saturated. A low value points to higher affinity. As a reminder, the koff is the rate constant with which the complex falls apart. Lower therefore signals a long-lived complex. What is called kon is the rate constant with which the complex forms.

Sequence of mouse (murine) NGF (mouse) (P01139 122-241 limits assumed): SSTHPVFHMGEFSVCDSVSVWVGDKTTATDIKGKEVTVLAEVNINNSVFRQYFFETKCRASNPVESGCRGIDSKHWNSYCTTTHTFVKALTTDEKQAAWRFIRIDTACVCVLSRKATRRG

“chimeric αD11 (rat αD11 variable regions fused to canine constant chain regions) (antibody)” gave a Kd of 0.905 pM, a koff of 6.2e-06 s⁻¹ and an association rate constant (kon) of 6.86e+06 M⁻¹ s⁻¹.

The values above are taken from US20230110287A1.
